Assay in all cases: Biacore (SPR)
The target in one experiment is T1, hBMP7 (human, UniProt P18075 293-431).
T1 sequence (looked up): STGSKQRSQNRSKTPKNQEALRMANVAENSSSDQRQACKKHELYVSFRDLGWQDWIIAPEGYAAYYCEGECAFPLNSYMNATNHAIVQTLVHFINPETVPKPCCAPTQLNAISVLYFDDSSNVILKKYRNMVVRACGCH

A further experiment concerns the target hBMP2 (human, UniProt P12643 283-396).
For a further experiment, the target named is T2, hBMP4 (human, UniProt P12644 293-408).
T2 sequence (looked up): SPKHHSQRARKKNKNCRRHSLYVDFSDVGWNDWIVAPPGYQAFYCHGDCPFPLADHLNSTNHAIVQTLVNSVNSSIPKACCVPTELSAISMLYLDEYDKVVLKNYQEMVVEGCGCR

hBMP2, sequence (P12643 283-396 limits assumed): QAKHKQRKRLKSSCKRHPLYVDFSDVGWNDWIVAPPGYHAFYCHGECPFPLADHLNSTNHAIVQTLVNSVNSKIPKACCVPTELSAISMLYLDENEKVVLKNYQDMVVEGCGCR

B1: mALK3(24-152)-mFc derived from HEK 293 cells (Fc fusion)
chain: GAQNLDSMLHGTGMKSDLDQKKPENGVTLAPEDTLPFLKCYCSGHCPDDAINNTCITNGHCFAIIEEDDQGETTLTSGCMKYEGSDFQCKDSPKAQLRRTIECCRTNLCNQYLQPTLPPVVIGPFFDGSIRTGGGEPRVPITQNPCPPLKECPPCAAPDLLGGPSVFIFPPKIKDVLMISLSPMVTCVVVDVSEDDPDVQISWFVNNVEVHTAQTQTHREDYNSTLRVVSALPIQHQDWMSGKEFKCKVNNRALPSPIEKTISKPRGPVRAPQVYVLPPPAEEMTKKEFSLTCMITGFLPAEIAVDWTSNGRTEQNYKNTATVLDSDGSYFMYSKLRVQKSTWERGSLFACSVVHEGLHNHLTTKTISRSLGK
notes: The Gly-Ala at 23-24 may also be absent, since the main species of the human construct starts at Gln; also called mALK3-mFc
In the case of B1, in the experiment with hBMP7, the binding result is given as “binds”. Further, the Kd in the experiment with hBMP2 came to 2.43 nM; with hBMP4, 0.947 nM.

By Kd is commonly meant the free concentration of one partner at which half of the binding sites on the other are occupied at equilibrium, for simple one-to-one binding. Read a low Kd as a tighter complex.
